The source of these data is PMC3597468 (Journal of controlled release : official journal of the …, 2012).

The data set deals with the molecule itself. As to the kind of experiment: cross-linking.

B1: Catalase, from bovine liver (enzyme, UniProt P00432 1-527, looked up)
chain: MADNRDPASDQMKHWKEQRAAQKPDVLTTGGGNPVGDKLNSLTVGPRGPLLVQDVVFTDEMAHFDRERIPERVVHAKGAGAFGYFEVTHDITRYSKAKVFEHIGKRTPIAVRFSTVAGESGSADTVRDPRGFAVKFYTEDGNWDLVGNNTPIFFIRDALLFPSFIHSQKRNPQTHLKDPDMVWDFWSLRPESLHQVSFLFSDRGIPDGHRHMNGYGSHTFKLVNANGEAVYCKFHYKTDQGIKNLSVEDAARLAHEDPDYGLRDLFNAIATGNYPSWTLYIQVMTFSEAEIFPFNPFDLTKVWPHGDYPLIPVGKLVLNRNPVNYFAEVEQLAFDPSNMPPGIEPSPDKMLQGRLFAYPDTHRHRLGPNYLQIPVNCPYRARVANYQRDGPMCMMDNQGGAPNYYPNSFSAPEHQPSALEHRTHFSGDVQRFNSANDDNVTQVRTFYLKVLNEEQRKRLCENIAGHLKDAQLFIQKKAVKNFSDVHPEYGSRIQALLDKYNEEKPKNAVHTYVQHGSHLSAREKANL
Turning to B1, the binding result is given as “binds”.
